Columns and labels:
Experiment in all cases: SEC
[1] = molecular target: Recombinant GST-fusion HRV-A34 VP1 with a C-terminal histidine tag (human rhinovirus A34 (HRV-A species))
[2] = molecular target: Recombinant GST-fusion HRV-B69 VP1 with a C-terminal histidine tag (human rhinovirus B69 (HRV-B species))
[3] = molecular target: Recombinant GST-fusion HRV-C3 VP1 with a C-terminal histidine tag (human rhinovirus C3 (HRV-C species))
[4] = molecular target: Recombinant GST-fusion HRV-C5 VP1 with a C-terminal histidine tag (human rhinovirus C5 (HRV-C species))
[5] = molecular target: Recombinant GST-fusion human poliovirus (HPV) Sabin VP1 with a C-terminal histidine tag (human poliovirus Sabin)
[6] = molecular target: the molecule itself

Recombinant GST-fusion HRV-A34 VP1 with a C-terminal histidine tag (natural protein)
stoichiometry N [1]: 10

Recombinant GST-fusion HRV-B69 VP1 with a C-terminal histidine tag (natural protein)
stoichiometry N [2]: 10

Recombinant GST-fusion HRV-C3 VP1 with a C-terminal histidine tag (natural protein)
stoichiometry N [3]: 10

Recombinant GST-fusion HRV-C5 VP1 with a C-terminal histidine tag (natural protein)
stoichiometry N [4]: 10

Recombinant GST-fusion human poliovirus (HPV) Sabin VP1 with a C-terminal histidine tag (natural protein)
stoichiometry N [5]: 10

B1: Recombinant GST-fusion HRV-B14 VP1 with a C-terminal histidine tag (natural protein)
chain: TVALTEGLGDELEEVIVEKTKQTVASISSGPKHTQKVPILTANETGATMPVLPSDSIETRTTYMHFNGSETDVECFLGRAACVHVTEIQNKDATGIDNHREAKLFNDWKINLSSLVQLRKKLELFTYVRFDSEYTILATASQPDSANYSSNLVVQAMYVPPGAPNPKEWDDYTWQSASNPSVFFKVGDTSRFSVPYVGLASAYNCFYDGYSHDDAETQYGITVLNHMGSMAFRIVNEHDEHKTLVKIRVYHRAKHVEAWIPRAPRALPYTSIGRTNYPKNTEPVIKKRKGDIKSY
stoichiometry N [6]: ~10

B2: Recombinant GST-fusion HRV-A1B VP1 with a C-terminal histidine tag (natural protein)
chain: SGPIEQNPVENYIDEVLNEVLVVPNIKESHHTTSNSAPLLDAAETGHTSNVQPEDAIETRYVMTSQTRDEMSIESFLGRSGCVHISRIKVDYNDYNGVNKNFTTWKITLQEMAQIRRKFELFTYVRFDSEVTLVPCIAGRGDDIGHVVMQYMYVPPGAPIPKTRNDFSWQSGTNMSIFWQHGQPFPRFSLPFLSIASAYYMFYDGYDGDNSSSKYGSIVTNDMGTICSRIVTEKQEHPVVITTHIYHKAKHTKAWCPRPPRAVPYTHSRVTNYVPKTGDVTTAIVPRASMKTV
stoichiometry N [6]: ~10

— publication PMC3737412, “Species-Specific and Cross-Reactive IgG1 Antibody Binding to Viral Capsid Protein 1 (VP1) Antigens of Human Rhinovirus Species A, B and C” (PLoS ONE, 2013)
